Tests used:
[1] = biological target: NepR1 (Sphingopyxis granuli TFA); experiment: SPR
[2] = biological target: NepR2 (Sphingopyxis granuli TFA); experiment: SPR

| Substance | Kd [1] | Kd [2] |
| --- | --- | --- |
| EcfG2 (natural protein) | 14.2 nM | 23.5 nM |
| EcfG1 (natural protein) | – | 38.8 nM |
